T1: soluble ICAM-R/IgG1 fusion protein (UniProt P32942 30-485, limits assumed)
T1 construct: not shown: IgG1 portion
T1 sequence (looked up): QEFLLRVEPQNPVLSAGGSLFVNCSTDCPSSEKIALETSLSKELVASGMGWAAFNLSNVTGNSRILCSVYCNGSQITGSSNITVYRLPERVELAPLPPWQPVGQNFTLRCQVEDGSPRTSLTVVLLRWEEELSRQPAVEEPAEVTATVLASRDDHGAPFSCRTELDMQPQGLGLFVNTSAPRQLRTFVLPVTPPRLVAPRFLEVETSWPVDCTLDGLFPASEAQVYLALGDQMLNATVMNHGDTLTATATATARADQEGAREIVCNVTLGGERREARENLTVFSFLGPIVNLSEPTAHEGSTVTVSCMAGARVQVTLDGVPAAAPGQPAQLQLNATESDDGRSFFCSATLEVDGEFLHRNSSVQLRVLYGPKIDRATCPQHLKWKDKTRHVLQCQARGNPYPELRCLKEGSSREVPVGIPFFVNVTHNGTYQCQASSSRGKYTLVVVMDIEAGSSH

B1: VCAM-1 domains 1 and 2 fused to human immunoglobulin Fc (Fc fusion, UniProt P19320 25-220, looked up, not shown: a dimerising Fc or GST)
chain: FKIETTPESRYLAQIGDSVSLTCSTTGCESPFFSWRTQIDSPLNGKVTNEGTTSTLTMNPVSFGNEHSYLCTATCESRKLEKGIQVEIYSFPKDPEIHLSGPLEAGKPITVKCSVADVYPFDRLEIDLLKGDHLMKSQEFLEDADRKSLETKSLEVTFTPVIEDIGKVLVCRAKLHIDEMDSVPTVRQAVKELQVY
notes: domain: domains 1 and 2; also called two domain form of VCAM-1
B2: soluble ICAM-1/IgG1 fusion protein (Fc fusion, UniProt P05362 28-480, looked up)
chain: QTSVSPSKVILPRGGSVLVTCSTSCDQPKLLGIETPLPKKELLLPGNNRKVYELSNVQEDSQPMCYSNCPDGQSTAKTFLTVYWTPERVELAPLPSWQPVGKNLTLRCQVEGGAPRANLTVVLLRGEKELKREPAVGEPAEVTTTVLVRRDHHGANFSCRTELDLRPQGLELFENTSAPYQLQTFVLPATPPQLVSPRVLEVDTQGTVVCSLDGLFPVSEAQVHLALGDQRLNPTVTYGNDSFSAKASVSVTAEDEGTQRLTCAVILGNQSQETLQTVTIYSFPAPNVILTKPEVSEGTEVTVKCEAHPRAKVTLNGVPAQPLGPRAQLLLKATPEDNGRSFSCSATLEVAGQLIHKNQTRELRVLYGPRLDERDCPGNWTWPENSQQTPMCQAWGNPLPELKCLKDGTFPLPIGESVTVTRDLEGTYLCRARSTQGEVTRKVTVNVLSPRYE
notes: not shown: IgG1 portion (detected with anti-human IgG1)
B3: soluble VCAM-1/IgG1 fusion protein (seven extracellular immunoglobulin-like domains) (Fc fusion, UniProt P19320 25-698, looked up)
chain: FKIETTPESRYLAQIGDSVSLTCSTTGCESPFFSWRTQIDSPLNGKVTNEGTTSTLTMNPVSFGNEHSYLCTATCESRKLEKGIQVEIYSFPKDPEIHLSGPLEAGKPITVKCSVADVYPFDRLEIDLLKGDHLMKSQEFLEDADRKSLETKSLEVTFTPVIEDIGKVLVCRAKLHIDEMDSVPTVRQAVKELQVYISPKNTVISVNPSTKLQEGGSVTMTCSSEGLPAPEIFWSKKLDNGNLQHLSGNATLTLIAMRMEDSGIYVCEGVNLIGKNRKEVELIVQEKPFTVEISPGPRIAAQIGDSVMLTCSVMGCESPSFSWRTQIDSPLSGKVRSEGTNSTLTLSPVSFENEHSYLCTVTCGHKKLEKGIQVELYSFPRDPEIEMSGGLVNGSSVTVSCKVPSVYPLDRLEIELLKGETILENIEFLEDTDMKSLENKSLEMTFIPTIEDTGKALVCQAKLHIDDMEFEPKQRQSTQTLYVNVAPRDTTVLVSPSSILEEGSSVNMTCLSQGFPAPKILWSRQLPNGELQPLSENATLTLISTKMEDSGVYLCEGINQAGRSRKEVELIIQVTPKDIKLTAFPSESVKEGDTVIISCTCGNVPETWIILKKKAETGDTVLKSIDGAYTIRKAQLKDAGVYECESKNKVGSQLRSLTLDVQGRENNKDYFSPE
notes: domain: seven extracellular immunoglobulin-like domains; not shown: IgG1 portion
B4: CD11a I domain/IgG chimeric protein (Fc fusion, UniProt P20701 153-332, looked up)
chain: GNVDLVFLFDGSMSLQPDEFQKILDFMKDVMKKLSNTSYQFAAVQFSTSYKTEFDFSDYVKRKDPDALLKHVKHMLLLTNTFGAINYVATEVFREELGARPDATKVLIIITDGEATDSGNIDAAKDIIRYIIGIGKHFQTKESQETLHKFASKPASEFVKILDTFEKLKDLFTELQKKIY
notes: domain: I domain; Negative control; also called CD11a/IgG4 protein; not shown: IgG4 portion
B5: human αd I domain/IgG4 fusion protein (Fc fusion)
chain: IVFLIDGSGSIDQNDFNQMKGFVQAVMGQFEGTDTLFALMQYSNLLKIHFTFTQFRTSPSQQSLVDPIVQLKGLTFTATGILTVVTQLFHHKNGARKSAKKILIVITDGQKYKDPLEYSDVIPQAEKAGIIRYAIGVGHAFQGPTARQELNTISSAPPQDHVFKVDNFAALGSIQKQLQEKIYAVEGTQSRASSSFQHEMSQE
notes: Residue limits approximate; also called Iαd/IgG4; I domain chimera; not shown: human IgG4 portion
B6: E-selectin, immobilized recombinant (ligand, UniProt P16581 22-556, looked up)
chain: WSYNTSTEAMTYDEASAYCQQRYTHLVAIQNKEEIEYLNSILSYSPSYYWIGIRKVNNVWVWVGTQKPLTEEAKNWAPGEPNNRQKDEDCVEIYIKREKDVGMWNDERCSKKKLALCYTAACTNTSCSGHGECVETINNYTCKCDPGFSGLKCEQIVNCTALESPEHGSLVCSHPLGNFSYNSSCSISCDRGYLPSSMETMQCMSSGEWSAPIPACNVVECDAVTNPANGFVECFQNPGSFPWNTTCTFDCEEGFELMGAQSLQCTSSGNWDNEKPTCKAVTCRAVRQPQNGSVRCSHSPAGEFTFKSSCNFTCEEGFMLQGPAQVECTTQGQWTQQIPVCEAFQCTALSNPERGYMNCLPSASGSFRYGSSCEFSCEQGFVLKGSKRLQCGPTGEWDNEKPTCEAVRCDAVHQPPKGLVRCAHSPIGEFTYKSSCAFSCEEGFELHGSTQLECTSQGQWTEEVPSCQVVKCSSLAVPGKINMSCSGEPVFGTVCKFACPEGWTLNGSAARTCGATGHWSGLLPTCEAPTESNIP
notes: also called E-selection

Columns and labels:
[1] = target: T2, human αd/CD18 heterodimer expressed on transfected cells (COS, CHO, JY) (human, UniProt P05107 23-769); test: adhesion of CHO transfectants to immobilized CAM, crystal violet A570
T2 construct: whole, on cells; also used as detergent lysate in immunoprecipitations; also called αd/CD18 CHO transfected cells; αd/CD18 co-transfectants
Protocol: (§1) The ability of CHO cells expressing either α₄β₁ or αdβ₂ to bind a five domain VCAM-1/Ig fusion protein or ICAM-1/Ig fusion protein was tested as follows. CAMs were immobilized on 96 well microtiter plates at 0.5 μg/well in bicarbonate buffer (pH 9.5). Plates were blocked with 1% fish gelatin and treated with either buffer, irrelevant antibody or a blocking VCAM-1 antibody. […] Cells were washed before addition to the CAM-coated wells at a density of 100,000 cells per well. Cells were incubated in the presence of the immobilized […] for twenty minutes before addition of 5% glutaraldehyde. Following fixation, plates were washed with distilled water and cells were stained with 1% crystal violet, After destaining with 66% ethanol for several hours, absorbance at 570 nm was measured on a Dynatech plate reader.

[2] = target: T3, LFA-1 leucine zipper fusion protein (soluble CD11a/CD18) (UniProt P20701 26-1090; P05107 23-700); test: ELISA, CAM/Ig on captured soluble CD11a/CD18
T3 construct: also called LFA-1LZ; captured CD11a/CD18
Protocol: (§2) The same protocol was used to immobilize the anti-CD11a antibody TS2/4.1 for immobilization of a LFA-1 leucine zipper (LFA-1LZ) fusion protein; LFA-1 was used as a negative control for VCAM-1 binding and a positive control for ICAM-1 binding. The plates were blocked with 300 μl/well 3% bovine serum albumin for one hour and washed in D-PBS. Tissue culture supernatants from stable CHO transfectants expressing either αd/CD18LZ or LFA-1LZ were added at 100 μl/well and allowed to incubate for 6 to 8 hours at 4° C. The plates were washed twice with Tris-buffered saline with Tween® 20 (TBS-T), followed by one wash with TBS (no Tween®) containing 2 mM each calcium chloride, magnesium chloride, and manganese chloride. The latter served as assay and wash buffer during the remainder of the assay.
(§3) After integrin capture, the plates were washed three times with 250 μl/well TBS. Purified CAM/Ig (see Example 12) was added to each well following serial 2:3 dilutions starting at a concentration of 10 to 20 μg/ml. CAM/Igs were allowed to bind for two hours at room temperature before plates were washed as above. Bound fusion protein was detected with horseradish peroxidase-conjugated goat anti-human Ig antibody (Jackson Labs) followed by development with o-phenyldiamine (OPD).

[3] = target: T4, α4β1 expressed on CHO cells (UniProt P13612 34-1032; P05556 21-798, limits assumed); test: adhesion of CHO transfectants to immobilized CAM, crystal violet
T4 construct: whole, on cells; also called α4 transformed CHO cells; α4 transfected line
Protocol: as §1

[4] = target: T2, human αd/CD18 heterodimer expressed on …; test: as above
Protocol: as §1

[5] = target: T3, LFA-1 leucine zipper fusion protein …; test: ELISA on LFA-1LZ captured with TS2/4.1
Protocol: as §2, §3

[6] = target: B3; test: ELISA, bound IgG4 detected with HP6023
[7] = target: T1, soluble ICAM-R/IgG1 fusion protein; test: ELISA, bound IgG4 detected with HP6023
[8] = target: B2; test: ELISA, bound IgG4 detected with HP6023
bovine serum albumin = target: T5, bovine serum albumin (bovine, UniProt P02769 25-607); test: ELISA, bound IgG4 detected with HP6023
T5 construct: also called BSA

[9] = target: T2, human αd/CD18 heterodimer expressed on …; test: adhesion of αdβ2-transfected CHO cells to coated wells
Protocol: For transfected and parental CHO cells, adhesion was performed using coated plates identical to those employed for eosinophil adhesion. […] A modification of a previously described gentle washing technique [Shanley, et al., J. Immunol. 160:1014 (1998)] was therefore employed. This technique allowed non-adherent cells to be dislodged from the inverted plate with centrifugation at 1×g for 30 minutes at 20° C. Remaining adherent cells were then removed using 0.1 M EDTA (Sigma) and counted by flow cytometry. In addition to VCAM-1, E-selection (100 ng/ml) was also used to coat wells in some adhesion experiments. In addition to the blocking monoclonal antibodies used in the eosinophil studies, immobilized VCAM-1 was pretreated with an appropriate dilution of F(ab′)₂ anti-VCAM-1 monoclonal antibody prior to the addition of CHO cells.
Chinese hamster ovary cells were transfected as described in Example 11. The αdβ₂-transfected CHO cells were cultured in DMEM/F12 media with 1 mM pyruvate and 2 mM L-glutamine (Biofluids) supplemented with 10% dialyzed FBS, 100 U/ml penicillin, 100 μg/ml streptomycin, and 600 μg/ml G418 (all from Life Technologies). Media for culture of the parental CHO cell line was similar except that non-dialyzed FBS (Life Technologies) was used and 0.1 mM hypoxanthine and 16 nM thymidine (Sigma) were used in place of the G418. […]

T5 sequence (P02769 25-607 limits assumed): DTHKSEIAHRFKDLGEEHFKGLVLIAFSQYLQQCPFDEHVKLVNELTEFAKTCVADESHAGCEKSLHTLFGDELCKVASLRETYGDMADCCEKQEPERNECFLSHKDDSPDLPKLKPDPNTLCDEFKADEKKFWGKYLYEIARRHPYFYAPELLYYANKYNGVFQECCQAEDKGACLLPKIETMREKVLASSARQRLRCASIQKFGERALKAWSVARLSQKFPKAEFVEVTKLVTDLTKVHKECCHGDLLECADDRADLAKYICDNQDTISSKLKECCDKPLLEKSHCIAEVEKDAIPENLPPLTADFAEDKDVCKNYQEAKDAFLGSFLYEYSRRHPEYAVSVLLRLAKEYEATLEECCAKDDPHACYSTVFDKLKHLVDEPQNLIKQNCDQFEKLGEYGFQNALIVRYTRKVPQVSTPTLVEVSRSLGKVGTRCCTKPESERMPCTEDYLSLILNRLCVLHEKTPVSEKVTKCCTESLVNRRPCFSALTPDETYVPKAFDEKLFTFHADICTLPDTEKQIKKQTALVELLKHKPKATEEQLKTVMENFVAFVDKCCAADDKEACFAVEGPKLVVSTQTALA

B1
binding result [1]: binds

B2
fold above background [2]: ~15 fold
binding result [3]: no binding (tested: 0.5 µg/well coat)
binding result [4]: no binding (tested: 0.5 µg/well coat)

B3
binding result [5]: no binding

B4
binding result [6]: no binding
binding result [7]: no binding

B5
binding result [8]: no binding
binding result (bovine serum albumin): no binding

B6
binding result [9]: no binding (tested: 100 ng/ml coat)
